Experimental findings from the supplement of paper PMC9170038 are described below.

The test system of this data set is MS2 coat protein. The data set can be described thus: apparent KD of MS2 coat protein; designed switch direction (-1 OFF switch, 1 ON switch): 1; higher = weaker reporter binding. The essentials:
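The reported apparent KD is a per-design median over clusters, from curve fits of normalised cluster fluorescence. Protein titrations used SNAP-549-labelled MS2 coat protein, doubled from 0.7 or 1.5 nM to 3 µM, in Tris-HCl pH 7.5 buffer with KCl, MgCl2, BSA, DTT, tRNA and Tween-20, with no input, 200 uM small-molecule ligand, or an oligonucleotide input. The RNA switches were transcribed on Illumina chips by stalled E. coli RNA polymerase.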

Where [1] appears, read: Eterna round: R95, input ligand: FMN 200 uM.
Where [2] appears, read: Eterna round: R95, input ligand: microRNA oligo, concentration not stated.
Where [3] appears, read: Eterna round: R95, input ligand: none.
Setting [4] is: input ligand: microRNA oligo, concentration not stated.

Consider “CGAUGAUACUCAGGAAGGAGAGUAGAGGAACAUGAGGAUCACCCAUGUAUGAGCUUUUUGCUCGUCAUGAACAGGAG [JR_SHM208a_Sub009] (puzzle: Sensor for hsa-mir-208a)”, for which the “apparent KD of MS2 coat protein” value is 107 nM under setting [1], 64.4 nM under setting [2] and 111 nM under setting [3].
Regarding “CGCCAAUUGGCACAGGAUAUGAGCAUGCUCACAUGAGGAUCACCCAUGUGAUUACCAACGCAAAAUCAGAAGGGUGCCCUCGUCA [Beanza] (Eterna round: R96, puzzle: Same State 2)”, the “apparent KD of MS2 coat protein” value amounted to 80.6 nM (input ligand: FMN 200 uM), 99.1 nM under setting [4] and 164 nM (input ligand: none).
As to “CGCCAGAGAACAGGAUAUGGGCCGCGGCCUAUGGGCUGCUAACUCACAUGAGGAUCACCCAUGUCCCAGAAGGGUUCCUGGCGG [Xediat] (Eterna round: R96, puzzle: Same State NG 2)”, the “apparent KD of MS2 coat protein” value runs as follows: (input ligand: FMN 200 uM) 472 nM; under setting [4], 23.1 nM; (input ligand: none) 262 nM.
Turning to “CGCGCUCCGGUAGGAUAUGAGGUGCCGUAGGGACCCGCCUACGGACAUGAGGAUCACCCAUGUCCUCAGAAGGACCGGGCGUGA [Soenonorma] (Eterna round: R96, puzzle: Same State NG 2)”, the “apparent KD of MS2 coat protein” value was found to be 15.1 nM (input ligand: FMN 200 uM), 29.6 nM under setting [4] and 35.5 nM (input ligand: none).
For the sequence “CGGGUGGUUCUAGGAUAUCUAGGAUAUGGACGAGGAUUACCCGAGCAGCAUUAGCGCACCAGAGGAGAGAAGGAGAGUGAUGCG [pwkr ssNG2 2F5 2FMN.16] (Eterna round: R96, puzzle: Same State NG 2)”, the “apparent KD of MS2 coat protein” value was 251 nM (input ligand: FMN 200 uM), 3.25 nM under setting [4] and 53.3 nM (input ligand: none).
Consider “CGUACACAUGAGGAUCACCCAUGUCAGAUUUGGUCAGGAUAUGGGCGGCAUCCGCUAUUGCCAGAAGGGACUGUUG [JR_SS001_Sub703] (Eterna round: R96, puzzle: Same State 1)”, for which the “apparent KD of MS2 coat protein” value runs as follows: (input ligand: FMN 200 uM) 156 nM; under setting [4], 43.4 nM; (input ligand: none) 64.8 nM.
In the case of “CGUAGGUAGCUGGAGGAUAUCUGAGUGGUAACAUGAGGAUCACCCAUGUGAUGUGAGGAACAUGAGGAGAAGGCUAGCUGCCUGC [JL-ss2-3.13 JL mod] (puzzle: Same State 2)”, the “apparent KD of MS2 coat protein” value under setting [1] is 21.4 nM, the “apparent KD of MS2 coat protein” value under setting [2] came to 42.2 nM and the “apparent KD of MS2 coat protein” value under setting [3] was found to be 43.5 nM.
Turning to “CGUCCGGCCUGUGCUGGCCGGUAGCAUGUACAUGAGGAUCACCCAUGUUCAUGUGCAGGCUUUUUGCUCGUCUUGUG [salish99_mir208a_r3_007] (puzzle: Sensor for hsa-mir-208a)”, the “apparent KD of MS2 coat protein” value is, setting by setting: under setting [1], 34 nM; under setting [2], 12.3 nM; under setting [3], 33.8 nM.
In the same order, the values of “CGUCCGGCCUGUGCUGGCCGGUAGCUUGUACAUGAGGAUCACCCAUGUUCAUGUGCUGGCUUUUUGCUCGUCUUGUG [salish99_mir208a_017] (puzzle: Sensor for hsa-mir-208a)” are 283 nM, 27.2 nM and 419 nM.
In the same order, the values of “CGUCGCUGUCGAGAGGAUAUGCGGUGAUGGACAUGAGGAUCACCCAUGUUAGCGAUAGCAUCACGGUAGAAGGCUCUUACGACUG [Soteed Omei mod 24] (puzzle: Same State 2)” are 12.6 nM, 20 nM and 26.8 nM.
For the sequence “CGUUCUUACUCAGGACGGAGAGUAGAGGAACAUGAGGAUCACCCAUGUAUGAGCUUUUUGCUCGUGAUUAACAGUAG [JR_SHM208a_Sub013] (Eterna round: R96, puzzle: Sensor for hsa-mir-208a)”, the “apparent KD of MS2 coat protein” value worked out at 103 nM (input ligand: FMN 200 uM), 55.5 nM under setting [4] and 86.8 nM (input ligand: none).
Regarding “CGUUCUUACUCAGGACGGAGAGUAGAGGAACAUGAGGAUCACCCAUGUAUGAGCUUUUUGCUCGUGAUUAACAGUAG [JR_SHM208a_Sub013] (puzzle: Sensor for hsa-mir-208a)”, the “apparent KD of MS2 coat protein” value by setting is: under setting [1], 62.7 nM; under setting [2], 95.4 nM; under setting [3], 122 nM.
“CUAAAACAUGAGGAUCACCCAUGUCAACAAAGUCGAGGAUAUGGGCAAAUAAAAUAAGAACCAGAAGGCGAAUAAU [salish99_SS1_r3_012] (puzzle: Same State 1)”: the “apparent KD of MS2 coat protein” value stood at 42.3 nM under setting [1], 422 nM under setting [2] and 485 nM under setting [3].
In the same order, the values of “CUCAAAACAAGCUGCAGUGUUCGUCUUUAACAUGAGGAUCACCCAUGUAGUAGCCCGGUGGAAGCGCUCGGGCCACC [Antetera] (puzzle: Sensor for hsa-mir-208a)” are 44.3 nM, 27.8 nM and 43.9 nM.
In the same order, the values of “CUCAAAACAAGUUGCAGUGUUCGUCUUUAACAUGAGGAUCACCCAUGUAAUAACCCGGUGGAAGCGCUCGGGCCACC [Gereerle] (puzzle: Sensor for hsa-mir-208a)” are 25.7 nM, 15.5 nM and 26.1 nM.
As for “CUCAAACAUGAGGAUCACCCAUGUGUUGUCAUGGGAGGAUAUCCAAGUUCGUUGUAGUCGGGAGAAGGCCUAUGUC [× ×•×ª×• ×ž×“×™× ×” × ×—×ª-12] (puzzle: Same State 1)”, the “apparent KD of MS2 coat protein” value under setting [2] is 139 nM.
As to “CUCAAACAUGAGGAUCACCCAUGUUUUUUCAUGGGAGGAUAUCUAAGUUCAUUAUAUUCAGGAGAAGGCCUAUCUC [× ×•×ª×• ×ž×“×™× ×” × ×—×ª-06] (puzzle: Same State 1)”, the “apparent KD of MS2 coat protein” value by setting is: under setting [1], 54.5 nM; under setting [2], 36 nM; under setting [3], 30.3 nM.
For “CUCCCAUGUGCACAGGAUAUGCCGGGAUGCACAUGAGGAUCACCCAUGUAAUCCUGAAAAUAAAAGCAGAAGGGUGAUCAUGGGU [Teriqula] (puzzle: Same State 2)”, the “apparent KD of MS2 coat protein” value stood at 7.24 nM under setting [1], 16.5 nM under setting [2] and 13.2 nM under setting [3].
As for “CUCCCUUGGGUAGGAUAUCUAGGAUAUGGGAAAGACUAAGUCUGUAGGUCACCUAACCCAGAUGGAGAGAAGGACCCAACACUC [pwkr ssNG2 2FMN + F9.39] (Eterna round: R96, puzzle: Same State NG 2)”, the “apparent KD of MS2 coat protein” value runs as follows: (input ligand: FMN 200 uM) 3.66 nM; under setting [4], 33.3 nM; (input ligand: none) 15.8 nM.
In the same order, the values of “CUGAAAUGUCAAGGAUAUCACGUCGAUUAGACGUGAGAAGGUGAUCUACACAUGAGGAUCACCCAUGUGUUACGUGGGAGUCAG [Brourd's SSNG1/1-A2 mod 18] (Eterna round: R96, puzzle: Same State NG 1)” are 82.1 nM, 104 nM and 171 nM.
With “CUGACUUGUCAAGGAUAUCACGUCGAUUAGACGUGAGAAGGUGAUCUACACAUGAGGAUCACCCAUGUGUUACGUGGGAGUCAG [Brourd's SSNG1/1-A2 mod 20] (Eterna round: R96, puzzle: Same State NG 1)”, the “apparent KD of MS2 coat protein” value was 34.8 nM (input ligand: FMN 200 uM), 69 nM under setting [4] and 94.7 nM (input ligand: none).
For “CUGAGAAGUCAAGGAUAUCACGUCGAUUAGACGUGAGAAGGUGAUCAGUACAUGAGGAUCACCCAUGUGUUACAUGGAACUCAG [Brourd's SSNG1/1-A2 mod 8] (Eterna round: R96, puzzle: Same State NG 1)”, the “apparent KD of MS2 coat protein” value reads like this: (input ligand: FMN 200 uM) 1660 nM; under setting [4], 367 nM; (input ligand: none) 1110 nM.
Turning to “CUGAGAAGUCAAGGAUAUCACGUCGAUUAGACGUGAGAAGGUGAUCAUUACAUGAGGAUCACCCAUGUGUUACAUGGAGCUCAG [Brourd's SSNG1/1-A2 mod 6] (Eterna round: R96, puzzle: Same State NG 1)”, the “apparent KD of MS2 coat protein” value is, setting by setting: (input ligand: FMN 200 uM) 703 nM; under setting [4], 124 nM; (input ligand: none) 938 nM.
On to “CUGAGAUGUCAAGGAUAUGCUACCGUUUCGGUAGCAGAAGGUGAUCACAUGAGGAUCACCCAUGUAUGCAUGCGUGAGCGUGCU [JL SSNG1 3.59] (Eterna round: R96, puzzle: Same State NG 1)”, for which the “apparent KD of MS2 coat protein” value reads like this: (input ligand: FMN 200 uM) 234 nM; under setting [4], 36.9 nM; (input ligand: none) 62 nM.
Regarding “CUGAGCGAUCAAGGAUAUCACGUCGAAUAGACGUGAGAAGGUGAUCAUAACAUGAGGAUCACCCAUGUAUUACAUGAAGCUCAG [SSNG1/2-A1] (Eterna round: R96, puzzle: Same State NG 1)”, the “apparent KD of MS2 coat protein” value was found to be 231 nM (input ligand: FMN 200 uM), 536 nM under setting [4] and 2240 nM (input ligand: none).
In the same order, the values of “CUGAGCGAUCAAGGAUAUCACGUCGAAUAGACGUGAGAAGGUGAUCCAUACAUGAGGAUCACCCAUGUAUAACAUGAAGCUCAG [SSNG1/8-A1] (Eterna round: R96, puzzle: Same State NG 1)” are 794 nM, 21.6 nM and 404 nM.
Turning to “CUGCUCGGGUGAGGAUAUGCCGCCGUUUCGGCUGCAGAAGGUGCUACGUUACAUGAGGAUCACCCAUGUCUCUGUUGUUUCGUG [salish99_SSNG1_r04_966] (Eterna round: R96, puzzle: Same State NG 1)”, the “apparent KD of MS2 coat protein” value runs as follows: (input ligand: FMN 200 uM) 108 nM; under setting [4], 60.7 nM; (input ligand: none) 76 nM.
